The target of this test is calf collagen type I (calf) (UniProt P02453). Briefly: ELISA. (In general: An ELISA detects its analyte on a solid surface through an enzyme-linked reagent.)
UniProt P02453, sequence (P02453 162-1217, chain 1 of 2): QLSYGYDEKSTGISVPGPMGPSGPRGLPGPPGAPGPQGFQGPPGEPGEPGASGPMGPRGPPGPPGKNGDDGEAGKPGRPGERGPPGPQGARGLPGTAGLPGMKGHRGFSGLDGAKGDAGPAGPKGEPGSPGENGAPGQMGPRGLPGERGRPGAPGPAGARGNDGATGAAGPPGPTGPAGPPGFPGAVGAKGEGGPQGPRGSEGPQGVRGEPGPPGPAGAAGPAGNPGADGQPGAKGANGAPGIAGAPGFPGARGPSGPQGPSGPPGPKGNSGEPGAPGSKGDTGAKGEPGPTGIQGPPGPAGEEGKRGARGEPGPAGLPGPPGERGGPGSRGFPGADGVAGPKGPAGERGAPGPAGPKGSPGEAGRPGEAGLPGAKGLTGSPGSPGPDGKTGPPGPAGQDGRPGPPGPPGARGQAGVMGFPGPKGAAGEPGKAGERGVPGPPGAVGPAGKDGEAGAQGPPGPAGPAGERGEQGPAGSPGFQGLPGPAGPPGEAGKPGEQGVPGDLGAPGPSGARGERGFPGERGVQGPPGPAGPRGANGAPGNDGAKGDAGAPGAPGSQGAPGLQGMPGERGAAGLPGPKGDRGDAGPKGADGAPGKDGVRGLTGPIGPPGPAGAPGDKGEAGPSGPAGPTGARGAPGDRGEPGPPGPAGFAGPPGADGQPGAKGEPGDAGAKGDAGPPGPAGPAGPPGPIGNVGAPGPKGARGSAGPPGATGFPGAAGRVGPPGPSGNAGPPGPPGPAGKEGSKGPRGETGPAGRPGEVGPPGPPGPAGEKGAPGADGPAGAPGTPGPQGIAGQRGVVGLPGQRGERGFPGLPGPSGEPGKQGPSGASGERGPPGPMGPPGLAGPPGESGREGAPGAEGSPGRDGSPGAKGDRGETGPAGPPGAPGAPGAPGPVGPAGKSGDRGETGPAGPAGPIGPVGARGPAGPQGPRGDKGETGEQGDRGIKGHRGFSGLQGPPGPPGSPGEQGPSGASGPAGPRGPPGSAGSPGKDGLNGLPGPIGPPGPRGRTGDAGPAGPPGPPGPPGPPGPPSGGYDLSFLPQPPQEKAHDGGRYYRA
UniProt P02453, sequence (P02465 80-1117, chain 2 of 2, further chain): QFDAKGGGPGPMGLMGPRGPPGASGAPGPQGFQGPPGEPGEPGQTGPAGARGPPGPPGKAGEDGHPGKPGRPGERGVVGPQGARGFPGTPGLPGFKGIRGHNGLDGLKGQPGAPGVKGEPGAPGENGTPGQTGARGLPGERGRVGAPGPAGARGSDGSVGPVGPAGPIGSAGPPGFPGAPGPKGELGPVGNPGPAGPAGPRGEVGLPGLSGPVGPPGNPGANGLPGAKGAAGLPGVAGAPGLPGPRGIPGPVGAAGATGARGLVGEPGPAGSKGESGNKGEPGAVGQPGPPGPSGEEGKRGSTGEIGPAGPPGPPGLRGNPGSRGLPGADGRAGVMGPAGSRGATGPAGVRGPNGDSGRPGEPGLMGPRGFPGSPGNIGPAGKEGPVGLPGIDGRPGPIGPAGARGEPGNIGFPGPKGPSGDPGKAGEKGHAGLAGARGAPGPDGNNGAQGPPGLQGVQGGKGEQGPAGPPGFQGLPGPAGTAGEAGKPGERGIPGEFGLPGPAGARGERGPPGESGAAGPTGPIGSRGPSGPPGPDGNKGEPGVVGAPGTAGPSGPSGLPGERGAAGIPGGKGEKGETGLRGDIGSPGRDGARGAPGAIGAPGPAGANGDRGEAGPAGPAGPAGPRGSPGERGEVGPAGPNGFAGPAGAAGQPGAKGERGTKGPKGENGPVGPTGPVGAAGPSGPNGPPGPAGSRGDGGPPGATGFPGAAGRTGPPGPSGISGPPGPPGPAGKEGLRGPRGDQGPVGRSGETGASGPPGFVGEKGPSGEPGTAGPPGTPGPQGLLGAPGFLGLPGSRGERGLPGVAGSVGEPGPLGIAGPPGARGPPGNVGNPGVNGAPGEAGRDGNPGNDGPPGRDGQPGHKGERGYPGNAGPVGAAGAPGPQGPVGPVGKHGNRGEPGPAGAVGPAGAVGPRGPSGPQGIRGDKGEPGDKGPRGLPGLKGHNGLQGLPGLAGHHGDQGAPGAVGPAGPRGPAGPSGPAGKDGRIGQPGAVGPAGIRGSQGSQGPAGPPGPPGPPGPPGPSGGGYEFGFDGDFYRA

“Yersinia enterocolitica adhesin YadA head domains with a C-terminal His6-tag (domain or fragment)” had a percent binding at pH 4 of 50%.

(Values after paper doi:10.1101/869214.)
